Results from paper PMC10663207.

What was measured:
[1] = biological target: NMDA receptor subunit GluN2A (rat (endogenous in primary cortical neurons)) (UniProt Q00959); test: co-IP; precleared lysates (700 µg) of rat primary cortical neurons incubated overnight with protein G-agarose carrying anti-GluN2A or anti-GluN2B; blots for STIM1 and STIM2; control neurons and neurons treated with 50 µM NMDA and 100 µM glycine for 15 min; bands normalised to the precipitated subunit
[2] = biological target: NMDA receptor subunit GluN2B (rat (endogenous in primary cortical neurons)) (UniProt Q00960); test: as above
UniProt Q00960, sequence (Q00960 27-1482): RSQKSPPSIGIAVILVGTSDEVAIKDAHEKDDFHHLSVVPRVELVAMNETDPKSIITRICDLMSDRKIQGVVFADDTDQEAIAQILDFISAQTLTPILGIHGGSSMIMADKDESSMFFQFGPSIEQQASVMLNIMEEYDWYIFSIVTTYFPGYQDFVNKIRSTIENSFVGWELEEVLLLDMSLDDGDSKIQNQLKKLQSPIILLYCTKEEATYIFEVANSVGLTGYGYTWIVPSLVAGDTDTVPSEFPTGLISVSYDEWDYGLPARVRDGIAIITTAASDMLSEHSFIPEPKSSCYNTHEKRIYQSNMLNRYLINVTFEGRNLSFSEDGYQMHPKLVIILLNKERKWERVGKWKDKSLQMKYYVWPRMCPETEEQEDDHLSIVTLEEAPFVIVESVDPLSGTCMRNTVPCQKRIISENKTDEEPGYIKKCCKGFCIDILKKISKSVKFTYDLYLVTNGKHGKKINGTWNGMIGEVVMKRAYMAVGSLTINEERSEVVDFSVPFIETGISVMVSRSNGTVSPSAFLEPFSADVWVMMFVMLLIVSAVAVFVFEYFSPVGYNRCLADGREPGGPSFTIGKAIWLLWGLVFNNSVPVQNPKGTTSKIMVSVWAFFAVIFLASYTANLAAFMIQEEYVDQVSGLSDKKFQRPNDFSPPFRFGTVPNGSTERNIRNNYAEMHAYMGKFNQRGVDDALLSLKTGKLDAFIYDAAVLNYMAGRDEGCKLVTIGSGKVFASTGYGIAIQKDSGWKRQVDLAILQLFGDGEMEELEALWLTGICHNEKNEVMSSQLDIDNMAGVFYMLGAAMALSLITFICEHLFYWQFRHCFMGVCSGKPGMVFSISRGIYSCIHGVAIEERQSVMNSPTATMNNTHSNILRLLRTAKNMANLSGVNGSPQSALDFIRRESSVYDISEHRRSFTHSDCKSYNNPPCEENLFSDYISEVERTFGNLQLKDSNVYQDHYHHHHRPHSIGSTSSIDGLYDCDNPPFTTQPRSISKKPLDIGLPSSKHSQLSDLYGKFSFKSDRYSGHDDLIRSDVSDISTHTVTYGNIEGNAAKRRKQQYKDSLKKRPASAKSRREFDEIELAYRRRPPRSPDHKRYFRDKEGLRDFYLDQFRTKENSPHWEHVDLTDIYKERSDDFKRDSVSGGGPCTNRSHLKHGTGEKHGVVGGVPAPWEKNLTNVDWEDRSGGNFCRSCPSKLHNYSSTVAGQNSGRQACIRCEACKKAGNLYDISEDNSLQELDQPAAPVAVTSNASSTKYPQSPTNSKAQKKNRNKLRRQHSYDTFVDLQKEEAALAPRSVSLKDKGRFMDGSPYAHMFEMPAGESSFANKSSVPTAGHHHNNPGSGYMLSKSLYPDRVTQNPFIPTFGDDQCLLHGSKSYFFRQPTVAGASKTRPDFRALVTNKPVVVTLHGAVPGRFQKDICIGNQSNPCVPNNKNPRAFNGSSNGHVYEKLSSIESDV

UniProt Q00959, sequence (Q00959 23-1464): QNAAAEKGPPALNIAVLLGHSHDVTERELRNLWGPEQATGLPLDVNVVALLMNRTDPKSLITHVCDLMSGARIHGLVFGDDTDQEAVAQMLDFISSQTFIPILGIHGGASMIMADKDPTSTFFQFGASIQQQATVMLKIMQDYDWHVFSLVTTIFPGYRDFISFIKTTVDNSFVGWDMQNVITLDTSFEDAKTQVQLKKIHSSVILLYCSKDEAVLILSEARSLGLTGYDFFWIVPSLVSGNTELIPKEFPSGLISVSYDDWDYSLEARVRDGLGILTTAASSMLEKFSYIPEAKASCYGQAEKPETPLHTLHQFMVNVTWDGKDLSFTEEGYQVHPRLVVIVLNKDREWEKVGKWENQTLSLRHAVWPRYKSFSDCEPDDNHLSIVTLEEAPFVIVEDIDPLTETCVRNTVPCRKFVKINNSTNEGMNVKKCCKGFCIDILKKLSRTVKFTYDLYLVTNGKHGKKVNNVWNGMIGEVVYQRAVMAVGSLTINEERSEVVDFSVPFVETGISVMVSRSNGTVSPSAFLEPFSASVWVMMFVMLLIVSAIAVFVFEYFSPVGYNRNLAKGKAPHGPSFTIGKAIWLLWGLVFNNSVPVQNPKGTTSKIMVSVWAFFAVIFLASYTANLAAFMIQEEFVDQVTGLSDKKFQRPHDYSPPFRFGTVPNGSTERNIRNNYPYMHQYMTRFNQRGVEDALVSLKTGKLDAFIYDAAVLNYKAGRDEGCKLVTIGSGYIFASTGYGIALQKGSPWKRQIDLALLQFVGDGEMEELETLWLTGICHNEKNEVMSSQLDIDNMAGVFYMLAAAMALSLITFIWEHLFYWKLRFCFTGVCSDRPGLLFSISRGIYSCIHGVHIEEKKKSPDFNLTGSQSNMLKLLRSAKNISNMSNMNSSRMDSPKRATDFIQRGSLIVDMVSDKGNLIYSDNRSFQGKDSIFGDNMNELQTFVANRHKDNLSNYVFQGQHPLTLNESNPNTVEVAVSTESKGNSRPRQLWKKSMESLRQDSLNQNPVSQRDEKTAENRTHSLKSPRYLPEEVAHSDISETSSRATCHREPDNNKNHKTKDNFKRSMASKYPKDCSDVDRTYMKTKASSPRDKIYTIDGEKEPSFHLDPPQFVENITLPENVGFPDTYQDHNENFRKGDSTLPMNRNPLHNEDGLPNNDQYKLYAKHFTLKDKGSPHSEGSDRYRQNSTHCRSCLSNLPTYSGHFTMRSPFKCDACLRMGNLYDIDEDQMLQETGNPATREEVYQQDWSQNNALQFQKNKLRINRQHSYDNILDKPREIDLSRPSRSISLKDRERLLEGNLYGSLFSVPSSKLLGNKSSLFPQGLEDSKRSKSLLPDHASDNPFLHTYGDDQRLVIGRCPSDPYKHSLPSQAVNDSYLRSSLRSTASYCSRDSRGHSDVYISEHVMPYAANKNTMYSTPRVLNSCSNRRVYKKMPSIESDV

co-IP band after NMDA and glycine treatment, percent of control neurons [1]: 340%
co-IP band after NMDA and glycine treatment, percent of control neurons [2]: 204%
Substance: stromal interaction molecule 2 (STIM2) (natural protein)
